Test results as given in a protein production outcome set (Wang et al. 2014).

test: label from the status in PepcDB records
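Further: failed if final PepcDB status was selected cloned or expressed and not failed if soluble or beyond.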

Sequence	protein production
MNRPHSATGDRPLALVDEHAHAWSPKTARARFRKGLTGPTAGVAAGHTQANLISVPADWAYDMLLFCTRNPQPCPVLDVTDAGSWTTVLADGADLRTDLPRYRVWRDGELVDEPSDVREHWRDDLVTFLIGCSFTFEWALAAAGVPIRHVEQGRNVPMYVTSRACRPAGRLRGPMVVSMRPVPPAHLSAAIHESSLLPAVHGSPVHCGDPSALGIDDLDRPDFGEAVYREPDDIPVFWACGVTPQAAVMASRPPFALTHAPGQMFLTDARDEQYRVALEHHHHHH	failed
MNRTARRDGTPEKPRRGSQGGSRGDYGKPKRSHAKPQSANSGRPIKQRKQRDSEMLISNARPARHQHVGRREAGDGSTEG	failed
MNRTLAYKLGAIALLILLLLIPLLMIDGLIRDRQEVRDGVLQDIARSSSYSQRLTGPLLVVPYRRTVREWVTEEKTEKRVLQEREQRGELYFLPDRFALDGQMRTELRYRGIYQARLYHVDNKVAGYFQVPAHYGIEEDLEDYQFETPFLAMGISDIRGIENALRLSLNGASVDFEPGSRVGLLGSGVHAPLQGVDGRQAQRLEYAFDLSLLGSERLDIVPVGRDSQVILKADWPHPSFGGEFLPSEREITAQGFTARWQTSFFATNMEEALRSCVEEQRCDGFQARAFGVGLVDPVDQYLKADRAIKYALLFITLTFAGFFLFEVLKRLAVHPVQYALVGLALAFFYLLLLSLAEHVGFELAYLVSAGACVGLIGFYLCFVLRSVARGLGFSVGLAGLYGLLYGLLSAEDYALLMGSLLLFAVLAAVMVLTRRLDWYGVGRKDFPAVPARA	failed
MNRVDLSIFIPDSLTAETGDLKIKTYKVVLIARAASIFGVKRIVIYHDDADGEARFIRDILTYMDTPQYLRRKVFPIMRELKHVGILPPLRTPHHPTGKPVTGEYRQGLTVKRVKKGTLVDIGADKLALCREKLTVNRIMSFRVVRLGKEILIEPDEPEDRYWGYEVLDTRRNLAESLKTVGADVVVATSRNASPITSILDEVKTRMRGAREAAILFGGPYKGLPEIDADIWVNTLPGQCTETVRTEEAVLATLSVFNMLTQIDEKDE	not failed
MNRYQALFQRLSAAQQGAFVPFVTIGDPNPEQSLAIMQTLIDAGADALELGMPFSDPLADGPTIQGANLRALAAKTTPDICFELIAQIRARNPETPIGLLMYANLVYARGIDDFYQRCQKAGVDSVLIADVPTNESQPFVAAAEKFGIQPIFIAPPTASDETLRAVAQLGKGYTYLLSRAGVTGAETKANMPVHALLERLQQFDAPPALLGFGISEPAQVKQAIEAGAAGAISGSAVVKIIETHLDNPAKQLTELANFTQAMKKATKI	not failed
MNSDPTRERILHGLITLYILKELVKRPMHGYELQKSMFETTGQALPQGSIYILLKTMKERGFVISESSVNEKGQQLTVYHITDAGKKFLCDHSQALQLARKIIDDLLSTVDIIENRN	not failed
MNSELTFKQGLKDTMPTVFGYIGIGIAFGMIGHSEGFSVWVILLLSLIVYAGSAQFIMVSMLATHSPIMSIVLSVFLVNSRIILMSMTTASYFKNESLLKNILLGTLLTDESFALGMNKQNYTEGKLNFSWFNASNLLAYLVWALASAIGALLGNLLANPEKLGLGFAVIAMFIGLLYLQLISDKTLGLMLQLVMVGITLVLFYFGLIFLPSNLLVLFVTLIACALGVGVKRVFF	failed
MNSESKLSQKANSSFTMDDFAKALENHDYQFQKGQVVYGKVFQLDPDGAYVDIGGKSSAYIPRDEASLRAVNDLAAVLPLHEELEFIIIREQDAEGQVTLSRRQLEINHIWEKLAQMKENSQPVDVKVTGVNKGGVTVDVQSLRGFIPRSHLTERDNLEALKGHTLTAGFLEVDRNNKKLVLSQRLVTRSSNFNQLEIGQLVEGKITGIKPFGVFVDLNGLSALLHIKQVSQKFIESLEKVFQPGQTIKAIVIDLDQGKGRVAISTRALENFPGEVLENFEEVMASAEARANRAANKMNEGGVGV	failed
MNSGRPETMENLPALYTIFQGEVAMVTDYGAFIKIPGCRKQGLVHRTHMSSCRVDKPSEIVDVGDKVWVKLIGREMKNDRIKVSLSMKVVNQGTGKDLDPNNVIIE	not failed
MNSIKNVPARVLSRRPGHSLEAEREQFDKTQAISISKAINTQEAPVKEKHARRIILGTHHEKGAFTFWSYAIGLPLPSSSILSWKFCHVLHKVLRDGHPNVLHDCQRYRSNIREIGDLWGHLHDRYGQLVNVYTKLLLTKISFHLKHPQFPAGLEVTDEVLEKAAGTDVNNIFQLTVEMFDYMDCELKLSESVFRQLNTAIAVSQMSSGQCRLAPLIQVIQDCSHLYHYTVKLLFKLHSCLPADTLQGHRDRFHEQFHSLRNFFRRASDMLYFKRLIQIPRLPEGPPNFLRASALAEHIKPVVVIPEEAPEDEEPENLIEISTGPPAGEPVVVADLFDQTFGPPNGSVKDDRDLQIESLKREVEMLRSELEKIKLEAQRYIAQLKSQVNALEGELEEQRKQKQKALVDNEQLRHELAQLRAAQLEGERSQGLREEAERKASATEARYNKLKEKHSELVHVHAELLRKNADTAKQLTVTQQSQEEVARVKEQLAFQVEQVKRESELKLEEKSDQLEKLKRELEAKAGELARAQEALSHTEQSKSELSSRLDTLSAEKDALSGAVRQREADLLAAQSLVRETEAALSREQQRSSQEQGELQGRLAERESQEQGLRQRLLDEQFAVLRGAAAEAAGILQDAVSKLDDPLHLRCTSSPDYLVSRAQEALDAVSTLEEGHAQYLTSLADASALVAALTRFSHLAADTIINGGATSHLAPTDPADRLIDTCRECGARALELMGQLQDQQALRHMQASLVRTPLQGILQLGQELKPKSLDVRQEELGAVVDKEMAATSAAIEDAVRRIEDMMNQARHASSGVKLEVNERILNSCTDLMKAIRLLVTTSTSLQKEIVESGRGAATQQEFYAKNSRWTEGLISASKAVGWGATQLVEAADKVVLHTGKYEELIVCSHEIAASTAQLVAASKVKANKHSPHLSRLQECSRTVNERAANVVASTKSGQEQIEDRDTMDFSGLSLIKLKKQEMETQVRVLELEKTLEAERMRLGELRKQHYVLAGASGSPGEEVAIRPSTAPRSVTTKKPPLAQKPSVAPRQDHQLDKKDGIYPAQLVNY	not failed
MNSIWKQYIDILQGVVKPALGCTEPICAAYAASVATQMLGSKPETIDVFVSDNLYKNSMGVFVPRTGRVGLAIAAATGAIGGNPDAGLEVLAKITEEEVDEAQKLIDNGCVVVQRETTDEFIYCRVIAKNAVHNAEVTISGGHTLIIEKRLDDNVIFTLDSSLPKTSTASICDGVDITISSIYDFATQAEFDDIKFILEAKELNIALAQEGLNNPYGLEVGRTYQKNIEKGLLAKSLDSDILIYTSAASDARMGGATLPAMSNYGSGNQGIAATIPVVKMADFFNADDEKLARAFIMSHLGAIYIKSHYPPLSAFCGNAVTSAAASMAMVYLAGGTFEQSCSAIQNTISDTSGMICDGAKSTCAMKVGSSAQSAMKSALLALNDHCVTKQGVIADDVEKTIKNIGRMITTGMPNIDHEIIEIMAS	failed
MNSKIMYHIFPDRFHRYGEDRPGLIKWGEKPSRDSFFGGNLEGIRQKIQYIKDLRVDHIYLNPLFKSKSNHRYDVDDYYSIDELLGTDQDLKNLVSDAHASGIKIVLDMVFNHTSTDFPAFRDVIEKGRNSPYYRWYIFHRDEFTVFRGRGKRGSYPSYETFMGYGGMPKLDHRNPEVRRYCINVLKYYVQKFDVDGFRYDVAHSIYSKFFEEVFSEIGTGILHIGEAWCLPTYLVNGSAWQSYTNYFLGGSIIDFLKGSITLGEFYDRVQRMLIVNGIEKQQAMMNVLDSHDTPRILRILNGDRKKVKLAYSILYLFDGIATIYYGDEVGLDGGKDPDDRRCFPWDSMDEDMHSFFMNLGDLREKYSLGSALEHHHHHH	failed
MNSLQILSFVGFTLLVAVITWWKVRKTDTGSQQGYFLAGRSLKAPVIAASLMLTNLSTEQLVGLSGQAYKSGMSVMGWEVTSAVTLIFLALIFLPRYLKRGIATIPDFLEERYDKTTRIIIDFCFLIATGVCFLPIVLYSGALALNSLFHVGESLQISHGAAIWLLVILLGLAGILYAVIGGLRAMAVADSINGIGLVIGGLMVPVFGLIAMGKGSFMQGIEQLTTVHAEKLNSIGGPTDPLPIGAAFTGLILVNTFYWCTNQGIVQRTLASKSLAEGQKGALLTAVLKMLDPLVLVLPGLIAFHLYQDLPKADMAYPTLVNNVLPVPMVGFFGAVLFGAVISTFNGFLNSASTLFSMGIYRRIINQNAEPQQLVTVGRKFGFFIAIVSVLVAPWIANAPQGLYSWMKQLNGIYNVPLVTIIIMGFFFPRIPALAAKVAMGIGIISYITINYLVKFDFHFLYVLACTFCINVVVMLVIGFIKPRATPFTFKDAFAVDMKPWKNVKIASIGILFAMIGVYAGLAEFGGYGTRWLAMISYFIAAVVIVYLIFDSWRHRHDPAVTFTPDGKDSL	failed
MNSNDQPGLDLLGDPIVLTQRLVDIPSPSGQEKQIADEIEDALRNLNLPGVEVFRFNNNVLARTNRGLASRVMLAGHIDTVPIADNLPSRVEDGIMYGCGTVDMKSGLAVYLHTFATLATSTELKHDLTLIAYECEEVADHLNGLGHIRDEHPEWLAADLALLGEPTGGWIEAGCQGNLRIKVTAHGVRAHSARSWLGDNAMHKLSPIISKVAAYKAAEVNIDGLTYREGLNIVFCESGVANNVIPDLAWMNLNFRFAPNRDLNEAIEHVVETLELDGQDGIEWAVEDGAGGALPGLGQQVTSGLIDAVGREKIRAKFGWTDVSRFSAMGIPALNFGAGDPSFAHKRDEQCPVEQITDVAAILKQYLSE	not failed
MNSTISFLYQPKVQNGSIISVEALLRVPGVTNIESYVSMVTNKPLFDYTIIRKVLSDRREYHENIGYSFPVSINISIQSLESDYFINKTSKLLKNEPNVTLEITENDSYLSLERVKESMGILKSLGVKFSLDDFGKGFSDIEQVLSLDLDEIKVDGSLVNDIENNFYKFRHLKYTLDELEDISNFNIVIERVENKKQVNLIESLGKKVSYQGYFFYKPMNLFDLTIATPEPHKEEKHEPKLLLEKLIYELIKTDNDNECAQLVNDIHSVDIFNNLGSKVCDSLTITEVKKSILKKYNKIALNPNSPENLFFKSYLNCMSRLVIIRDSEGNALFNNQAHINFMNVDLVGMPLESIYEKFEQYESCIAIDKELIESKSNFLAVREVVDFDGQTKSYYTFRQKINHYGKTLIITIVYDEDDRDSFPRDALTDCFDRTILNSYYMNQFNMVAFIDMDGFKKINDNFSHKLGDDCLSKFVMYLKHELRKEDLIIRYGGDEFLIFTQWDDRHTFESRLNLIRNKVEKLFKSNNIDLSFSYGIEDLSKGMEIAINCADEKMYADKSRKLQ	failed
MNSYPLISVIMSVYKEEREWLVSSIQSILDQTVSDFEFIIILDFPNSELLKTLKDFEKKDSRIIIYQNEKNVGLVESLNTALSFSRGKYIARMDADDISHKNRFEKQLKYITLNNLDLVGGNVNIFHSNKGIYNTTDKVQSDYFLCKLLKIGTIGIVHPTFFSKRNVYDTIGGYYHAECAEDLELLMRANLNGFKIGNIPDVILDCRYSEKSITKENAYFMFCTVKYLKSLYRSSLKSGDYKFNSNYIELYLYDENNKLAFSEKQNLMSEARHSFNEKKYISFLINLIKSILISRTVFFSIKVNVMSFLFRKVEVKIPKVLLACIKIKLQLEHHHHHH	not failed
MNTFPWLTTIILLPIVAALFIPIIPDKDGKTVRWYSLAVGLVDFALIVYAFYSGFDLSEPGLQLVESYTWLPQIDLKWSVGADGLSMPLIILTGFITTLATMAAWPVTLKPKLFYFLMLLMYGGQIAVFAVQDILLFFLVWELELVPVYLILSIWGGKKRLYAATKFILYTAGGSLFILLAGLTLAFYGDVNTFDMSAIAAKDIPVNLQLLLYAGFLIAYGVKLPIFPLHTWLPDAHGEATAPAHMLLAGILLKMGGYALLRMNVGMLPDAHAVFAPVLVILGVVNIIYAAFTSFAQRNLKRKIAYSSISHMGFVLIGLASFTDLGMSGAMLQMISHGLIGASLFFMVGATYDRTHTLMLDEMGGIGQKMKKGFAMWTACSLASLALPGMSGFVAELMVFVGFATSDAYNLVFRTIVVVLMGVGVILTPIYLLSMLREMLYGPENEELVNHTNLVDVEPREVFIIGCLLVPIIGIGFYPKLITQIYDPTINQLVQTARRSVPSLVQQANLSPLEVTALRPPTIGF	failed
